Paper PMC3969988
“And” between values parts separate entries of the source, which are not always exact repeats. Equal values may be shown once.

Tests used:
[1] = target: T1, recombinant human CAP1 (human), Q01518; experiment: ELISA; settings: remark: other sources report otherwise
T1 chain: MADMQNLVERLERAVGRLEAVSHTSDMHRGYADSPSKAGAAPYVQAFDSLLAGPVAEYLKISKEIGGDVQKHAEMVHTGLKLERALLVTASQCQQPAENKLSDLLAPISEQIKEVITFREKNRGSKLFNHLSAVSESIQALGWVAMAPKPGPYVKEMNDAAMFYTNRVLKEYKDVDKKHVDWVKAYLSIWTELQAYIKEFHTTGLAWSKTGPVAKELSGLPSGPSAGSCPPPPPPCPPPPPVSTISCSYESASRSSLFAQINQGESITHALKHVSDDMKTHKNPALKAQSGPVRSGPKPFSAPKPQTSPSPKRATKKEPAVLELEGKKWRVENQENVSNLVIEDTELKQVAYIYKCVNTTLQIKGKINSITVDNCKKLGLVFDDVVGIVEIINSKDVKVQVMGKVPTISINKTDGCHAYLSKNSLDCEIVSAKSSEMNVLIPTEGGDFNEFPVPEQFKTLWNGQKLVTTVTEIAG

[2] = target: T2, adenovirus-delivered human resistin (human), Q9HD89; experiment: non-reducing SDS gel; settings: remark: other sources report otherwise
T2 chain: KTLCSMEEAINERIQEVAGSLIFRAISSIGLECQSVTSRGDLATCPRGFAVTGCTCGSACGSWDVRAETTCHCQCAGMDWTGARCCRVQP

B1: non-Fc-conjugated recombinant human resistin protein, Q9HD89 19-108 (ligand)
chain: KTLCSMEEAINERIQEVAGSLIFRAISSIGLECQSVTSRGDLATCPRGFAVTGCTCGSACGSWDVRAETTCHCQCAGMDWTGARCCRVQP
EC50 [1]: 784 nM

B2: adenovirus-delivered human resistin, Q9HD89 19-108 (ligand)
chain: KTLCSMEEAINERIQEVAGSLIFRAISSIGLECQSVTSRGDLATCPRGFAVTGCTCGSACGSWDVRAETTCHCQCAGMDWTGARCCRVQP
stoichiometry N [2]: 3 and 2
